Experimental data as given in patent publication US20100086958A1, “NOVEL ENZYME” (priority 2008, published 2010).

How the values were obtained:
[1] = Steady state kinetics for NADP^+ (FDH-catalysed formate oxidation); assay type: biochemical
Experimental: BcenFDH1 (Bsp184FDH) and BspFDH2 (Bsp383FDH) catalyzed oxidation of formate to CO2 was monitored by UV/Vis spectrophotometry in a 96-well plate format. A series of eight solutions of formate (0-200 mM) were prepared by successive dilutions of a stock solution of 0.5 M sodium formate in 0.1 M sodium phosphate buffer, pH 7.0. From this series, 170 μL was transferred into wells of the 96-well plate. 10 μL of the FDHs from a stock solution (64.1 μM for BcenFDH1 (Bsp184FDH) and 78.0 μM for BspFDH2 (Bsp383FDH)) were added into each well and equilibrated for 3 min at 30° C. The reaction was initiated by addition of 20 μL of NAD^+ or NADP^+ solution from a freshly prepared stock (10 mM) using an 8-channel pipette. The plate was then immediately placed into the plate reader. The plate was shaken for 5 s to ensure thorough mixing, and then time-based measurements were recorded every 15 s for 10 min. The rate of formate oxidation was calculated using an extinction coefficient of 3.38 mM^−1 (for 200 μL), which was determined using NADH standards. Km and Vmax values were obtained by non-linear regression to the Michaelis-Menten equation (Eq.1 below) using Origin v7 (Microcal Software Inc.).
Similar procedure were used for determination of Michaelis-Menten parameters for NAD^+ and NADP^+. A series of eight solutions of cofactor (0-75 mM) were prepared by successive dilutions of stock solutions. […] of sodium formate solutions (180 mM in well) were transferred into wells of the 96-well plate. 10 μL of the FDHs from a stock solution (64.1 μM for BcenFDH1 (Bsp184FDH) and 78.0 μM for BspFDH2 (Bsp383FDH)) were added into each well and equilibrated for 3 min at 30° C. The reaction was initiated by addition of 20 μL of NAD^+ or NADP^+ solutions using an 8-channel pipette. The plate was then immediately placed into the plate reader. The plate was shaken for 5 s to ensure thorough mixing, and then time-based measurements were recorded every 15 s for 10 min. The rate of formate oxidation was calculated using an extinction coefficient of 3.38 mM^−1 (for 200 μL), which was determined using NADH standards. Km and Vmax values were obtained by non-linear regression to the Michaelis-Menten equation as before.

[2] = Cytochrome P450 BM3/BspFDH2 coupled oxidation of 1-propylbenzene with NADPH regeneration; assay type: biochemical
Experimental: (Li, Q.-S. et al., FEBS Letters 508, 249-252 (2001)) In this oxygen C—H reaction (FIG. 4a), one oxygen atom from an atmospheric O2 molecule is reduced to water by NADPH leaving the other ready for delivery to substrate. All P450's are NADPH-dependent. NADP^+ thus formed is then regenerated to NADPH by the action of BspFDH2 using formate. The overall atomic transformation is therefore the splitting of O2- with a hydride ion from formate using NADP^+ as a hydride shuttle.
200 μL of 1-propylbenzene (1a above, 1M in DMSO), sodium formate (3 M, 2 mL) and bovine serum albumin (100 mg/mL, 1 mL) were added in potassium phosphate buffer (100 mM, pH 7.6, 2 mL) and the reaction mixture was shaken for 3 min. NADP^+ (10 mM, 1 mL) and BspFDH2 (17 mg/mL, 500 μL) were added and the reaction shaken for 30 minutes at room temperature. After 30 minutes, wild type cytochrome P450-BM3 (WT P450 BM3, 2.4 mg/mL, 300 μL) was added and the reaction shaken at room temperature. The reaction was monitored by GC-MS (Rt˜3.2 minutes). After 15 hr, the reaction mixture was extracted by DCM (3×1 mL) and the combined organic phase was dried and the solvent removed to afford 1-phenylpropan-1-ol (2a above, >99% conversion based on GC chromatogram). […]

B1: Bsp383FDH: wild type FDH from Burkholderia sp 383, Seq ID No: 1, C-terminal His-tagged (protein, listed as Burkholderia sp.)
chain: MATVLCVLYPDPVDGYPPRYVRDAIPVITHYADGQTAPTPAGPPGFQPGELVGCVSGALGLRGYMEAHGHTLIVTSDKDSPDSEFERRLPEADVVISQPFWPAYLTAERIARAPKLKLALTAGIGSDHVDLDAAARARITVAEVTGSNSISVAEHVVMTTLALVRNYLPSHAIAQQGGWNIADCVSRSYDVEGMHFGTVGAGRIGLAVLRRLKPFGLQLHYTQRHRLDASIEQELGLTYHADAASLASAVDIVNLQIPLYPSTEHLFDAAMIARMKRGAYLINTARAKLVDRDAVVNALTSGHLAGYGGDVWFPQPAPADHPWRTMPFNGMTPHISGTSLSAQARYAAGTLEILQCWFDGKPIRNEYLIVDGGTLAGTGAQSYRLT
modifications: C-terminal His tag
**Q.** Which Km ([1]; cofactor NADP^+, 0.18M formate) does the source give for B1 here?
**A.** 700 ± 100 µM

**Q.** And the “kcat NADP^+” value ([1]; cofactor NADP^+, 0.18M formate)?
**A.** 2.77 ± 0.12 s⁻¹

**Q.** And the “cofactor preference for NADP^+, times greater than those of known FDHs such as CmetFDH” value ([1]; relative to CmetFDH)?
**A.** 10^6 times

**Q.** And the reaction complete within ([2]; coupled with cytochrome P450 BM-3)?
**A.** ≤ 2 h

**Q.** And the “conversion of propylbenzene to 1-phenyl-1-propanol” value ([2]; coupled with cytochrome P450 BM-3, NADPH regeneration from formate, GC)?
**A.** > 99%
